This note sets out measurements from US20250000973A1 (Novartis, published 2025).

The assay concerns the target T1, BCMA (TNFRSF17), human plasma membrane protein array (human, UniProt Q02223 1-184).
T1 construct: also called B-cell maturation antigen
T1 sequence (looked up): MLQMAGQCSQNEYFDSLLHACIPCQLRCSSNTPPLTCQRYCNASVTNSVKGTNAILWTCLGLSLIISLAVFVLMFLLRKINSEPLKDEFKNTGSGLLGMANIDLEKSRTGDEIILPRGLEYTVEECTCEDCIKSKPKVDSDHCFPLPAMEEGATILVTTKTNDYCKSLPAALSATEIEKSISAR
Kind of assay: commercial human plasma membrane protein array.

B1: anti-human BCMA single chain antibody variable fragment (scFv) (PI61) (scFv)
scFv: QVQLQESGGGVVQPGRSLRLSCAASGFTFSSYGMHWVRQAPGKGLEWVAVISYDGSNKYYADSVKGRFTISRDNSKNTLYLQMNSLRAEDTAVYYCGGSGYALHDDYYGLDVWGQGTLVTVSSGGGGSGGGGSGGGGSQSALTQPASVSGSPGQSITISCTGTSSDVGGYNYVSWYQQHPGKAPKLMIYDVSNRPSGVSNRFSGSKSGNTASLTISGLQAEDEADYYCSSYTSSSTLYVFGSGTKVTVL
notes: also called PI61 scFv
Consider B1, for which the binding result is given as “binds”.
